Data set [1] has as its target T1, Z-L-tyrosine-L-lysine-L-arginine-p-nitroanilide.
T1 chain: YKR

For data set [2], the target named is fusion protein (peptide portion)-(Lys-Arg)-(h-GH), P01241.
Sequence of fusion protein (peptide portion)-(Lys-Arg)-(h-GH), P01241 (P01241 whole entry, looked up, the tested form may be a part): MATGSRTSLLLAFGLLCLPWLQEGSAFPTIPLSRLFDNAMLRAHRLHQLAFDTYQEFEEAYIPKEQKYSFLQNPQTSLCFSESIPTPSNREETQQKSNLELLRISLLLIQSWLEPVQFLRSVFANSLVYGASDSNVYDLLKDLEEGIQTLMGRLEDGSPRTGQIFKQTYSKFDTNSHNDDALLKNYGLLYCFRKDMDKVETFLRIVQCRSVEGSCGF

B1: ss-Kex1-C600 (soluble secreted Kex1 endoprotease of Kluyveromyces lactis truncated at amino acid 600) (protein)
chain: LPIGDSSMEQIQNARILFNISDPLFDQQWHLINPNYPGNDVNVTGLWKENITGYGVVAALVDDGLDYENEDLKDNFCVEGSWDFNDNNPLPKPRLKDDYHGTRCAGEIAAFRNDICGVGVAYNSKVSGIRILSGQITAEDEAASLIYGLDVNDIYSCSWGPSDDGKTMQAPDTLVKKAIIKGVTEGRDAKGALYVFASGNGGMFGDSCNFDGYTNSIFSITVGAIDWKGLHPPYSESCSAVMVVTYSSGSGNYIKTTDLDEKCSNTHGGTSAAAPLAAGIYTLVLEANPNLTWRDVQYLSILSSEEINPHDGKWQDTAMGKRYSHTYGFGKLDAYNIVHMAKSWINVNPQGWLYLPTIVEKQSISNSDEVIESTVSVSAEEFKQNNLKRLEHVTVTVDIDAPYRGHVLVDLISPDGVTSTLATARRLDKNRYGFQNWTFMSVAHWGSSGVGSWKLKVKSTHDNEIVTLKSWRLKMFGETIDAKKAKVISYGNDKEDAE
As usually defined, the KM is the concentration of substrate that gives half-maximal velocity. Usually kcat stands for the maximal rate divided by the concentration of active sites. Turning to B1, in data set [1], the KM was determined as 61.4 µM, the kcat came out at 3070 s⁻¹, the kcat/KM (µM^-1 × min^-1) came to 3000 and the specific activity result is recorded as “a specific activity of approximately 100 U/mg”. Also, in data set [2], the “reaction yield of hydrolysis (RP-HPLC)” value is “a reaction yield higher than 95%” and the “specificity of the hydrolysis (NH2-terminal sequence of the reaction product)” value is given as “gave the expected sequence for h-GH”.

B2: ss-Kex2-C613 (soluble secreted Kex2 endoprotease of Saccharomyces cerevisiae truncated at amino acid 613) (protein)
chain: APPMDSSLLPVKEAEDKLSINDPLFERQWHLVNPSFPGSDINVLDLWYNNITGAGVVAAIVDDGLDYENEDLKDNFCAEGSWDFNDNTNLPKPRLSDDYHGTRCAGEIAAKKGNNFCGVGVGYNAKISGIRILSGDITTEDEAASLIYGLDVNDIYSCSWGPADDGRHLQGPSDLVKKALVKGVTEGRDSKGAIYVFASGNGGTRGDNCNYDGYTNSIYSITIGAIDHKDLHPPYSEGCSAVMAVTYSSGSGEYIHSSDINGRCSNSHGGTSAAAPLAAGVYTLLLEANPNLTWRDVQYLSILSAVGLEKNADGDWRDSAMGKKYSHRYGFGKIDAHKLIEMSKTWENVNAQTWFYLPTLYVSQSTNSTEETLESVITISEKSLQDANFKRIEHVTVTVDIDTEIRGTTTVDLISPAGIISNLGVVRPRDVSSEGFKDWTFMSVAHWGENGVGDWKIKVKTTENGHRIDFHSWRLKLFGESIDSSKTETFVFGNDKEEVE
On to B2, for which, in data set [1], the KM is 56.8 µM, the kcat was 2280 s⁻¹ and the kcat/KM (µM^-1 × min^-1) was 12400.

Values taken from patent US20030186258.
